Columns and labels:
Experiment in all cases: cell_activity
[1] = tested on: FucT1_T02 TAL effector endonuclease, right monomer (engineered); conditions: yeast beta-gal assay of the pair 37 C; 0.7 at 30 C; protoplast NHEJ 39.2% FucT1, 24.7% FucT2 (Table 3)
[2] = tested on: FucT2_T02 TAL effector endonuclease, right monomer (engineered); conditions: yeast beta-gal assay of the pair 37 C; 0.7 at 30 C; protoplast NHEJ 46.5% FucT1, 45.0% FucT2 (Table 3)
[3] = tested on: FucT2_T01 TAL effector endonuclease, left monomer (engineered); conditions: yeast beta-gal assay of the pair 37 C; 0.8 at 30 C
[4] = tested on: XylT_T03 TAL effector endonuclease, left monomer (engineered); conditions: yeast beta-gal assay of the pair 37 C; 0.7 at 30 C; protoplast NHEJ 34.4% XylT1, 28.2% XylT2 (Table 3)
[5] = tested on: FucT1_T02 TAL effector endonuclease, left monomer (engineered)
[6] = tested on: FucT2_T02 TAL effector endonuclease, left monomer (engineered)
[7] = tested on: FucT1_T01 TAL effector endonuclease, left monomer (engineered); conditions: yeast beta-gal assay of the pair 37 C; 0.6 at 30 C
[8] = tested on: FucT_T04 TAL effector endonuclease, right monomer (engineered); conditions: yeast beta-gal assay of the pair 37 C; 0.5 at 30 C; same with FucT1 and FucT2 spacers
[9] = tested on: FucT2_T01 TAL effector endonuclease, right monomer (engineered); conditions: yeast beta-gal assay of the pair 37 C; 0.8 at 30 C
[10] = tested on: FucT1_T01 TAL effector endonuclease, right monomer (engineered); conditions: yeast beta-gal assay of the pair 37 C; 0.6 at 30 C
[11] = tested on: XylT_T04 TAL effector endonuclease, right monomer (engineered); conditions: yeast beta-gal assay of the pair 37 C; 0.9 at 30 C; protoplast NHEJ 73.8% XylT1, 63.9% XylT2 (Table 3)
[12] = tested on: XylT_T03 TAL effector endonuclease, right monomer (engineered); conditions: yeast beta-gal assay of the pair 37 C; 0.7 at 30 C; protoplast NHEJ 34.4% XylT1, 28.2% XylT2 (Table 3)
[13] = tested on: XylT_T04 TAL effector endonuclease, left monomer (engineered); conditions: yeast beta-gal assay of the pair 37 C; 0.9 at 30 C; protoplast NHEJ 73.8% XylT1, 63.9% XylT2 (Table 3)
[14] = tested on: FucT_T04 TAL effector endonuclease, left monomer (engineered); conditions: yeast beta-gal assay of the pair 37 C; 0.5 at 30 C; same with FucT1 and FucT2 spacers

“CTCTGTTCGTTGCCCTA (double strand) [FucT_T02 target sequence 2]” gave an activity (relative to I-SceI) [1] of 0.9 and an activity (relative to I-SceI) [2] of 0.9.

Sequence “TGAGATCGTCGTCAAAT (double strand) [FucT2_T01 target sequence 1]” has an activity (relative to I-SceI) [3] of 0.9.

“TTCTTGTTTCTCTCTTC (double strand) [XylT_T03 target sequence 1]” gave an activity (relative to I-SceI) [4] of 0.9.

With “TTCAAACGCACCCAATA (double strand) [FucT1_T02 target sequence 1]” the activity (relative to I-SceI) ([5]; yeast beta-gal assay of the pair 37 C, 0.7 at 30 C, protoplast NHEJ 39.2% at FucT1 (Table 3)) was 0.9 and the activity ([6]; pair at endogenous FucT1, 1-bp polymorphism in half-site, N. benthamiana protoplasts, control 0.79%) was 46.5 % NHEJ.

With “TGAGATCGGCGTCAAAT (double strand) [FucT1_T01 target sequence 1]” the activity (relative to I-SceI) [7] was 0.8.

“TTTCTGGTTCGACTCGA (double strand) [FucT_T04 target sequence 2]” gave an activity (relative to I-SceI) [8] of 0.6.

“GATAAACAATGGCGCAA (double strand) [FucT2_T01 target sequence 2]” was tested, and the activity (relative to I-SceI) [9] was 0.9.

Sequence “AATAAGCAATGGCGCAA (double strand) [FucT1_T01 target sequence 2]” has an activity (relative to I-SceI) [10] of 0.8.

Sequence “CTCTACTTCTCTTCCCA (double strand) [XylT_T04 target sequence 2]” has an activity (relative to I-SceI) [11] of 0.9.

Sequence “ATCACTCTCTATCTCTA (double strand) [XylT_T03 target sequence 2]” has an activity (relative to I-SceI) [12] of 0.9.

“TCTCTTCGCTCTCAACT (double strand) [XylT_T04 target sequence 1]” showed an activity (relative to I-SceI) [13] of 0.9.

Sequence “TTGCCTCTGTTCGTTGC (double strand) [FucT_T04 target sequence 1]” has an activity (relative to I-SceI) [14] of 0.6.

In the case of “TTCAAACGCACCCGATA (double strand) [FucT2_T02 target sequence 1]”, the activity ([5]; pair at endogenous FucT2, 1-bp polymorphism in half-site, N. benthamiana protoplasts, control 0.14%) is reported as 24.7 % NHEJ and the activity (relative to I-SceI) ([6]; yeast beta-gal assay of the pair 37 C, 0.7 at 30 C, protoplast NHEJ 45.0% at FucT2 (Table 3)) is reported as 0.9.

From patent US20210059142
